We go through 2 substances from PMC7756140.

For orientation: Kd means the constant that tells how readily two partners part at equilibrium. Low readings indicate higher affinity, high ones lower affinity.

Among the targets are CCR5^QTY – SZ190b (SF9); CCR5^QTY – SZ218a (SF9); CCR5^QTY (SF9); CCR5^QTY (E. coli); CXCR4^QTY (E. coli).
Common to all, as to assay: MST
Test [1] has as its target CCR5^QTY – SZ190b (E. coli).
Test [2] addresses CCR5^QTY – SZ218a (E. coli).
In test [3] the target is CXCR4^QTY – SZ158a (E. coli).

“CCL5 (from UniProt P13501 24-91) (ligand)”: the Kd was found to be 37.8 nM with CCR5^QTY – SZ190b (SF9); 55.8 nM in test [1]; 87.7 nM in test [2]; 51.7 nM with CCR5^QTY – SZ218a (SF9); 41.1 nM with CCR5^QTY (SF9); 6.8 nM with CCR5^QTY (E. coli).
Turning to HIV-1 coat glycoprotein gp41-120, the Kd in test [3] is 200 nM; with CXCR4^QTY (E. coli) it was 7 nM.
